21 molecules from patent US20210309732A1 (ELIXIRON IMMUNOTHERAPEUTICS HONG KONG, published 2021) can be followed below.

B1: 1D2-D90E (DE) (antibody, IgG1, V domains shown)
VH: QVQLVQSGAEVKKPGASVKVSCEASGYTFTDKYLHWVRQAPGQGLEWMAWINPKSGGTFYAQNFKGRVTVTRDTSINTAYLELTSLRLDETSTYYCARGRDYYDQGAADLWGQGTMVTVSS
VL: DIQLTQSPSSLSASVGDRVTITCRASQGINSVLAWYQQKPGKAPKLLLYAASKLESGVPSRFSGSGSGTDYTLTISSLQPEDFGTYYCQQYYSPVRTFGQGTKVEIKR
notes: also called ID2-D90E (DE); DE mutant
B2: 1D2-D89E (ED) (antibody, IgG1, V domains shown)
VH: B1 VH with D89E, E90D
VL: B1 VL
notes: also called ID2-D89E (ED); ED mutant
B3: 1D2 SDR mutant K54G/V32R (antibody, IgG1, V domains shown)
VH: B1 VH with K54G, E90D
VL: B1 VL with V32R
notes: also called 54G/32R
B4: 1D2 SDR mutant Y103N/V32R (antibody, IgG1, V domains shown)
VH: B1 VH with E90D, Y103N
VL: B1 VL with V32R
B5: 1D2 SDR mutant Y103R/V32R (antibody, IgG1, V domains shown)
VH: B1 VH with E90D, Y103R
VL: B1 VL with V32R
B6: 1D2 SDR mutant HK54G (antibody, IgG1, V domains shown)
VH: B1 VH with K54G, E90D
VL: B1 VL
notes: also called X3 G
B7: 1D2 SDR mutant HY103R (antibody, IgG1, V domains shown)
VH: B1 VH with E90D, Y103R
VL: B1 VL
notes: also called X6 R
B8: 1D2 SDR mutant HY103N (antibody, IgG1, V domains shown)
VH: B1 VH with E90D, Y103N
VL: B1 VL
notes: also called X6 N
B9: 1D2 SDR mutant LV95P (antibody, IgG1, V domains shown)
VH: B1 VH with E90D
VL: B1 VL with V95P
notes: also called X10 P
B10: 1D2 SDR mutant LV95E (antibody, IgG1, V domains shown)
VH: B1 VH with E90D
VL: B1 VL with V95E
notes: also called X10 E
B11: 1D2 SDR mutant LV95D (antibody, IgG1, V domains shown)
VH: B1 VH with E90D
VL: B1 VL with V95D
notes: also called X10 D
B12: 1D2 SDR mutant LV32Y (antibody, IgG1, V domains shown)
VH: B1 VH with E90D
VL: B1 VL with V32Y
notes: also called X8 Y
B13: 1D2 SDR mutant LV32L (antibody, IgG1, V domains shown)
VH: B1 VH with E90D
VL: B1 VL with V32L
notes: also called X8 L
B14: 1D2 SDR mutant LP94N (antibody, IgG1, V domains shown)
VH: B1 VH with E90D
VL: B1 VL with P94N
notes: also called X9 N
B15: 1D2 SDR mutant LV32P (antibody, IgG1, V domains shown)
VH: B1 VH with E90D
VL: B1 VL with V32P
notes: also called X8 P
B16: 1D2 SDR mutant LV95C (antibody, IgG1, V domains shown)
VH: B1 VH with E90D
VL: B1 VL with V95C
notes: also called X10 C
B17: 1D2 SDR mutant HQ105N (antibody, IgG1, V domains shown)
VH: B1 VH with E90D, Q105N
VL: B1 VL
notes: also called X7 N
B18: 1D2 SDR mutant LV95R (antibody, IgG1, V domains shown)
VH: B1 VH with E90D
VL: B1 VL with V95R
notes: also called X10 R
B19: 1D2 SDR mutant LV32R (antibody, IgG1, V domains shown)
VH: B1 VH with E90D
VL: B1 VL with V32R
notes: also called X8 R
B20: 1D2 SDR mutant LV95L (antibody, IgG1, V domains shown)
VH: B1 VH with E90D
VL: B1 VL with V95L
notes: also called X10 L

Positions count from the first letter of the chain named. Names and notes keep the numbering of the source.

For one assay, the target named is rhesus GM-CSF (rhesus, UniProt Q9GL44 18-144). The assay is described as follows: ELISA, rhesus GM-CSF coated on the plate, anti-human kappa light chain-HRP, OD 450 nm. On the procedure: (§1) Human and mouse GM-CSF have about 56% homology and are species specific. Rhesus and GM-CSF has 96.5% homologous to human GM-CSF (Hutchinson et al, J Med Virol 2001, 65:561-565, Genbank accession number AY007376). […] ELISA was performed as followed. Briefly, GM-CSF proteins were coated on the ELISA absorbing plates, then blocked by 1% BSA in PBS. […] After incubation, the plates were washed three times with TBST and incubated with anti-human kappa light chain conjugated HRP secondary antibodies. Plates were washed three times, TMB peroxidase substrate was added and reactions were stopped by adding 1 N sulfuric acid.
rhesus GM-CSF, sequence (Q9GL44 entry or part of it limits assumed): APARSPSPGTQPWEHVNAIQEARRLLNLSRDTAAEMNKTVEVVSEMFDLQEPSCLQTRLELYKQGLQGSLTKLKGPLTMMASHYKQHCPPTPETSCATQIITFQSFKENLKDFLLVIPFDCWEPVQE
(In general: In an ELISA, binding on a coated surface is turned into a signal by an enzyme label.)
On to B1, for which the EC50 (read off the curve) – broadly, the concentration giving half of the maximal effect – is approximately 0.6 nM.

As to B2, the “EC50 (read off the curve)” value was approximately 0.6 nM.

For another assay, the target named is T1, recombinant human GM-CSF (human, UniProt P04141 18-144). The experiment in a line: cell-based or functional assay.
T1 sequence (P04141 18-144 limits assumed): as the sequence (Q9GL44 entry or part of it limits assumed) above, with G9S, K38E, V43I, S53T, Q67R, Q104E counted along it
As for B1, the “IC50, inhibition of GM-CSF induced TF-1 cell proliferation” value was determined as 0.123 nM and the “IC50, inhibition of rhGM-CSF induced IL-8 secretion in U937 cells” value was 0.054 nM.

B2: the “IC50, inhibition of GM-CSF induced TF-1 cell proliferation” value worked out at 0.0971 nM; the “IC50, inhibition of rhGM-CSF induced CCL17 secretion from PBMCs” value was determined as 0.0543 nM; the “IC50, inhibition of rhGM-CSF induced IL-8 secretion in U937 cells” value amounted to 0.051 nM.

A further assay has as its target T1, recombinant human GM-CSF. The assay is described as follows: Gator, Coating Ag.
Take B3: the Kd (commonly the concentration at which binding is half-saturated) stood at 0.0222 nM.

Turning to B4, the Kd was found to be 0.0201 nM.

B5: the Kd is 0.0309 nM.

In the next assay the target is T1, recombinant human GM-CSF. The assay is described as follows: Biacore. (SPR reads the build-up and loss of mass on a sensor chip optically.)
On to B1, for which the Kd came to 0.114 nM; the koff (in general, a measure of how fast the partners let go of each other) worked out at 0.000198 s⁻¹; the kon (usually the second-order rate constant of association) stood at 1.74e+06 M⁻¹ s⁻¹.

B2: the Kd was found to be 0.0732 nM, the koff was 0.000188 s⁻¹ and the kon turned out to be 2.58e+06 M⁻¹ s⁻¹.

For another assay, the target named is recombinant human IL-3 (human) (UniProt P08700). The assay is described as follows: cell-based or functional assay.
recombinant human IL-3 (human), sequence (P08700 20-152 limits assumed): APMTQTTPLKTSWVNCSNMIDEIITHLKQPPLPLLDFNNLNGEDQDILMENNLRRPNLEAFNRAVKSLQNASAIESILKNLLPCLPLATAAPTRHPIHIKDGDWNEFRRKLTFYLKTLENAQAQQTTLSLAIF
Turning to MOR103 (otilimab) (antibody), the Mean Fluorescence Intensity of phospho-STAT5 (pY694) in human PBMCs stimulated with 10 ng/mL rhIL-3, 2 ug/mL antibody (no antibody: 102) came to 106 MFI.

In the next assay the target is T1, recombinant human GM-CSF. The assay is described as follows: Biacore. The source holds these as a separate data set.
For the molecule B6, the Ka stood at 2.89e+09 M⁻¹, the Kd turned out to be 0.346 nM, the koff was determined as 0.000448 s⁻¹ and the kon came out at 1.3e+06 M⁻¹ s⁻¹.

On to B7, for which the Ka is 2.42e+09 M⁻¹, the Kd came out at 0.414 nM, the koff was 0.00057 s⁻¹ and the kon was 1.38e+06 M⁻¹ s⁻¹.

Take B3: the Ka amounted to 5.23e+08 M⁻¹, the Kd worked out at 1.91 nM, the koff is 0.00197 s⁻¹ and the kon amounted to 1.03e+06 M⁻¹ s⁻¹.

For the molecule B4, the Ka was determined as 2.37e+08 M⁻¹, the Kd was determined as 4.22 nM, the koff was determined as 0.0027 s⁻¹ and the kon was found to be 640000 M⁻¹ s⁻¹.

Consider B5, for which the Ka came to 4.14e+08 M⁻¹, the Kd stood at 2.42 nM, the koff is 0.00241 s⁻¹ and the kon stood at 998000 M⁻¹ s⁻¹.

In the case of B8, the Ka stood at 2.5e+09 M⁻¹, the Kd was found to be 0.4 nM, the koff was 0.000669 s⁻¹ and the kon was found to be 1.67e+06 M⁻¹ s⁻¹.

Another assay addresses T1, recombinant human GM-CSF. The assay is described as follows: ELISA on coated rhGM-CSF, UBA relative to 1D2. The procedure, abridged: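 Antibody clones carrying SDR point mutants in VH or VL, each paired with the wild-type chain, were expressed in HEK293 cells. Culture media diluted 1:12000 were bound to plates coated with rhGM-CSF at 1 μg/mL for 1 h at room temperature. Detection used HRP anti-human antibody and Amplex Red fluorescence (Ex530/Em590), with UBA = fluorescence signal/dilution factor.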
Consider B6, for which the “binding affinity % of 1D2” value worked out at 114%.

For the molecule B9, the “binding affinity % of 1D2” value worked out at 46%.

In the case of B7, the “binding affinity % of 1D2” value was found to be 115%.

For the molecule B10, the “binding affinity % of 1D2” value is 40%.

For the molecule B11, the “binding affinity % of 1D2” value came to 47%.

Regarding B12, the “binding affinity % of 1D2” value was 114%.

As for B13, the “binding affinity % of 1D2” value stood at 167%.

On to B14, for which the “binding affinity % of 1D2” value was 60%.

Consider B15, for which the “binding affinity % of 1D2” value worked out at 581%.

For B16, the “binding affinity % of 1D2” value worked out at 46%.

Regarding B17, the “binding affinity % of 1D2” value turned out to be 156%.

Consider B18, for which the “binding affinity % of 1D2” value worked out at 45%.

As for B19, the “binding affinity % of 1D2” value came out at 1030%.

Consider B20, for which the “binding affinity % of 1D2” value came out at 41%.

In the case of B8, the “binding affinity % of 1D2” value came to 130%.

The target of another assay is T1, recombinant human GM-CSF. The assay is described as follows: cell-based or functional assay. This is another data set of the same source.
As to B6, the “IC50 (M), inhibition of GM-CSF induced TF-1 cell proliferation (FIG. 5B)” value (shortened to “IC50 (M), inhibition … (FIG. 5B)”) was 1.87e-09 M.

On to B7, for which the “IC50 (M), inhibition … (FIG. 5B)” value turned out to be 3.47e-09 M.

In the case of B3, the “IC50 (M), inhibition … (FIG. 5B)” value was 6.62e-09 M.

As to B14, the “IC50 (M), inhibition … (FIG. 5B)” value was 1.49e-09 M.

Turning to B17, the “IC50 (M), inhibition … (FIG. 5B)” value came out at 7.67e-09 M.

For the molecule B4, the “IC50 (M), inhibition … (FIG. 5B)” value was approximately 6.83e-09 M.

For B5, the “IC50 (M), inhibition … (FIG. 5B)” value is approximately 8.19e-09 M.

On to B19, for which the “IC50 (M), inhibition … (FIG. 5B)” value is 2.48e-09 M.

Consider B8, for which the “IC50 (M), inhibition of GM-CSF induced TF-1 cell proliferation (FIG. 5A)” value came to 3.41e-09 M and the “IC50 (M), inhibition … (FIG. 5B)” value came to 3.6e-09 M.

For a further assay, the target named is T1, recombinant human GM-CSF. The assay is described as follows: ELISA, human GM-CSF coated on the plate, anti-human kappa light chain-HRP, OD 450 nm. On the procedure:
as §1
For the molecule B1, the concentration giving a half-maximal response (EC50 (read off the curve)) is approximately 0.5 nM.

For B2, the “EC50 (read off the curve)” value is approximately 0.5 nM.

A further assay has as its target T1, recombinant human GM-CSF. The assay is described as follows: Gator, Coating Ab.
Take B3: the Kd amounted to 0.929 nM.

As to B4, the Kd was 1.44 nM.

In the case of B5, the Kd was found to be 4.14 nM.

In a further assay the target is T1, recombinant human GM-CSF. The experiment in a line: Gator (pro), Coating Ag.
As to B3, the Kd amounted to 0.000746 nM.

Turning to B4, the Kd was 0.00584 nM.

For B5, the Kd is 0.0028 nM.

Another assay concerns the target T1, recombinant human GM-CSF. The assay is described as follows: Biacore. This is another data set of the same source.
In the case of B3, the Kd turned out to be 1.5 nM.

For B4, the Kd stood at 3.36 nM.

B5: the Kd came out at 7.76 nM.
